According to article PMC10889000:

Target: Insulin-like growth factor 2 mRNA binding protein 2, full-length, Q9Y6M1
Assay: mass photometry
Details: remark: other sources report otherwise

B1: Insulin-like growth factor 2 mRNA binding protein 2, full-length, Q9Y6M1 1-599 (natural protein)
chain: MMNKLYIGNLSPAVTADDLRQLFGDRKLPLAGQVLLKSGYAFVDYPDQNWAIRAIETLSGKVELHGKIMEVDYSVSKKLRSRKIQIRNIPPHLQWEVLDGLLAQYGTVENVEQVNTDTETAVVNVTYATREEAKIAMEKLSGHQFENYSFKISYIPDEEVSSPSPPQRAQRGDHSSREQGHAPGGTSQARQIDFPLRILVPTQFVGAIIGKEGLTIKNITKQTQSRVDIHRKENSGAAEKPVTIHATPEGTSEACRMILEIMQKEADETKLAEEIPLKILAHNGLVGRLIGKEGRNLKKIEHETGTKITISSLQDLSIYNPERTITVKGTVEACASAEIEIMKKLREAFENDMLAVNQQANLIPGLNLSALGIFSTGLSVLSPPAGPRGAPPAAPYHPFTTHSGYFSSLYPHHQFGPFPHHHSYPEQEIVNLFIPTQAVGAIIGKKGAHIKQLARFAGASIKIAPAEGPDVSERMVIITGPPEAQFKAQGRIFGKLKEENFFNPKEEVKLEAHIRVPSSTAGRVIGKGGKTVNELQNLTSAEVIVPRDQTPDENEEVIVRIIGHFFASQTAQRKIREIVQQVKQQEQKYPQGVASQRSK
percent of the protein in the ˜160kDa species: 42%
